Source: patent US20220041711A1 (NGM BIOPHARMACEUTICALS, published 2022)
Like-named read-outs stand apart in the source and are kept apart here.

Legend:
[1] = biological target: T1, human LAIR-1-CD3ζ chimeric receptor on NFAT-GFP reporter cells (human, UniProt P20963 31-164, limits assumed); assay: cell-based or functional assay
[2] = biological target: T1, human LAIR-1-CD3ζ chimeric receptor on …; assay: cell-based or functional assay; remark: listed apart in the source
Target sequence in this assay (P20963 other isoform, or with tags, fused parts or gaps mutant limits assumed): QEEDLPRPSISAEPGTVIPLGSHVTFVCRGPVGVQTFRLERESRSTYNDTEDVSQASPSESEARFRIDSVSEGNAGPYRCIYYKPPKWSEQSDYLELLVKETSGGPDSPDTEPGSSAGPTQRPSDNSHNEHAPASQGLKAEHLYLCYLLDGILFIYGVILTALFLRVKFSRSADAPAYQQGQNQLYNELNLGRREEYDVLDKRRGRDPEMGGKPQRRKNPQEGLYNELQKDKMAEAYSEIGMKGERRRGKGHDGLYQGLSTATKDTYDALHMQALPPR

Binder | IC50 (read off the curve): % GFP+ human LAIR-1 reporter cells on coated C1 complex [1] [pM] | IC50 (read off the curve): % GFP+ human LAIR-1 reporter cells on coated COLEC12 [1] [pM] | IC50 (read off the curve): % GFP+ human LAIR-1 reporter cells on coated MARCO-his [1] [pM] | IC50 (read off the curve): % GFP+ human LAIR-1 reporter cells on coated MBL [1] [pM] | IC50 (read off the curve): % GFP+ human LAIR-1 reporter cells on coated SP-D [1] [pM] | IC50 (read off the curve): % GFP+ human LAIR-1 reporter cells on coated collagen 1 [1] [pM] | IC50 (read off the curve): % GFP+ human LAIR-1 reporter cells on coated collagen 4 [1] [pM] | IC50 (read off the curve): % GFP+ human LAIR-1 reporter cells on coated MARCO-his [2] [pM] | IC50 (read off the curve): % GFP+ human LAIR-1 reporter cells on coated collagen 1 [2] [pM] | IC50 (read off the curve): % GFP+ human LAIR-1 reporter cells on coated collagen 4 [2] [pM]
anti-LAIR-1 antibody ch108D10 (antibody, V domains shown) VH: EVQLVETGGGLVQPKGSLKLSCAASGFTFNINAMNWVRQAPGKGLEWVARIRTKNNNYATYYADSVKDRFTISRDDSESMLYLQMNNLKTEDTAMYYCVRDRYGGAMAYWGQGTSVTVSS VL: DIQMTQSSSSFSVSLGDRVTITCKASEDIYNRLAWYQQKPGNVPRLLISSATSLETGVPSRFSGSGSGKDYTLSLTSLQSEDVATYYCQQYWTIPYTFGGGTKLEIK | ~10 | ~30 | ~30 | ~40 | ~20 | ~30 | ~20 | ~10 | ~50 | ~40
anti-LAIR-1 antibody ch61H4 (antibody, V domains shown) VH: EVQLQQSGPEVLKPGASVKISCKASGYTFTDYYYMNWVKQSHGKSLEWIGYIYPNNGATSYNQKFKGKATLTVDKSSSTAYMELRSLTSEDSAVYYCARDGYSSNYYTMDYWGQGTSVTVSS VL: DVQMIQSPSSLSASLGDIVTMTCQASQGTSINLNWFQQKPGKAPKLLIYGASNLEDGVPSRFSGSRYGTDFTLTISSLEDEDMATYFCLQHTYLPYTFGGGTKLEIK | – | – | – | – | – | – | – | ~800 | ~2000 | ~1000
anti-LAIR-1 antibody ch47A1 (antibody, V domains shown) VH: EVQLVESGGGLVQPKGSLKLSCAASGFTFNTYAIHWVRQAPGKGLEWVARIRSKSTNYATYYADSVKDRFTISRDDSQSMVFLQMNNLKTEDTAMYYCVRENWYYYALDYWGQGTSVTVSS VL: DIQMTQSPASLSASVGETVTITCRASGNIHNYLTWYQQKQGKSPQVLVYNAKTLEDGVPSRFSGSESGTQYSLKINSLQPEDFGSYYCQHFWSTPFTFGSGTKLEIK | ~20 | ~100 | ~60 | ~200 | ~50 | ~50 | ~40 | ~40 | ~100 | ~80
